Data taken from US20110182817A1 (NATIONAL UNIVERSITY CORPORATION OKAYAMA UNIVERSITY, published 2011).

Target: T1, human LDL oxidatively modified by copper sulfate (human, UniProt P04114 28-4563, limits assumed, oxidatively modified by copper sulfate)
T1 construct: Lipoprotein particle; also called oxidized LDL
Test: ELISA on immobilized Cu-oxidized human LDL, anti-mouse IgM-HRP
Procedure: 50 μl of […] human LDL oxidatively modified by copper sulfate was added to each well of 96-well microtiter plates (Immulon-2), and incubated at 4° C. overnight. After washing with PBS-Tween, the plates were blocked with 0.5% BSA-PBS. Test samples (culture supernatants appropriately diluted with PBS containing 0.1% BSA) were incubated in the plates at room temperature for one hour. After the plates were washed three times with PBS-Tween, an HRP-labeled anti-mouse IgM antibody was incubated in the plates at room temperature for one hour. After the plates were washed three times with PBS-Tween, 0.03% H₂O₂ and 0.1 M citrate buffer […] containing 0.4 mg/ml orthophenylenediamine (OPD) were added to the plates. After ten minutes of incubation, the reaction was stopped by adding an equal volume of 2N H₂SO₄. Absorbance was measured at 490 nm (FIG. 2). FIG. 2 is a graph showing the reactivities of monoclonal antibodies to NLO and oxidized LDL. The monoclonal antibodies were produced by hybridomas of the established five clones.

T1 sequence (P04114 28-4563 limits assumed): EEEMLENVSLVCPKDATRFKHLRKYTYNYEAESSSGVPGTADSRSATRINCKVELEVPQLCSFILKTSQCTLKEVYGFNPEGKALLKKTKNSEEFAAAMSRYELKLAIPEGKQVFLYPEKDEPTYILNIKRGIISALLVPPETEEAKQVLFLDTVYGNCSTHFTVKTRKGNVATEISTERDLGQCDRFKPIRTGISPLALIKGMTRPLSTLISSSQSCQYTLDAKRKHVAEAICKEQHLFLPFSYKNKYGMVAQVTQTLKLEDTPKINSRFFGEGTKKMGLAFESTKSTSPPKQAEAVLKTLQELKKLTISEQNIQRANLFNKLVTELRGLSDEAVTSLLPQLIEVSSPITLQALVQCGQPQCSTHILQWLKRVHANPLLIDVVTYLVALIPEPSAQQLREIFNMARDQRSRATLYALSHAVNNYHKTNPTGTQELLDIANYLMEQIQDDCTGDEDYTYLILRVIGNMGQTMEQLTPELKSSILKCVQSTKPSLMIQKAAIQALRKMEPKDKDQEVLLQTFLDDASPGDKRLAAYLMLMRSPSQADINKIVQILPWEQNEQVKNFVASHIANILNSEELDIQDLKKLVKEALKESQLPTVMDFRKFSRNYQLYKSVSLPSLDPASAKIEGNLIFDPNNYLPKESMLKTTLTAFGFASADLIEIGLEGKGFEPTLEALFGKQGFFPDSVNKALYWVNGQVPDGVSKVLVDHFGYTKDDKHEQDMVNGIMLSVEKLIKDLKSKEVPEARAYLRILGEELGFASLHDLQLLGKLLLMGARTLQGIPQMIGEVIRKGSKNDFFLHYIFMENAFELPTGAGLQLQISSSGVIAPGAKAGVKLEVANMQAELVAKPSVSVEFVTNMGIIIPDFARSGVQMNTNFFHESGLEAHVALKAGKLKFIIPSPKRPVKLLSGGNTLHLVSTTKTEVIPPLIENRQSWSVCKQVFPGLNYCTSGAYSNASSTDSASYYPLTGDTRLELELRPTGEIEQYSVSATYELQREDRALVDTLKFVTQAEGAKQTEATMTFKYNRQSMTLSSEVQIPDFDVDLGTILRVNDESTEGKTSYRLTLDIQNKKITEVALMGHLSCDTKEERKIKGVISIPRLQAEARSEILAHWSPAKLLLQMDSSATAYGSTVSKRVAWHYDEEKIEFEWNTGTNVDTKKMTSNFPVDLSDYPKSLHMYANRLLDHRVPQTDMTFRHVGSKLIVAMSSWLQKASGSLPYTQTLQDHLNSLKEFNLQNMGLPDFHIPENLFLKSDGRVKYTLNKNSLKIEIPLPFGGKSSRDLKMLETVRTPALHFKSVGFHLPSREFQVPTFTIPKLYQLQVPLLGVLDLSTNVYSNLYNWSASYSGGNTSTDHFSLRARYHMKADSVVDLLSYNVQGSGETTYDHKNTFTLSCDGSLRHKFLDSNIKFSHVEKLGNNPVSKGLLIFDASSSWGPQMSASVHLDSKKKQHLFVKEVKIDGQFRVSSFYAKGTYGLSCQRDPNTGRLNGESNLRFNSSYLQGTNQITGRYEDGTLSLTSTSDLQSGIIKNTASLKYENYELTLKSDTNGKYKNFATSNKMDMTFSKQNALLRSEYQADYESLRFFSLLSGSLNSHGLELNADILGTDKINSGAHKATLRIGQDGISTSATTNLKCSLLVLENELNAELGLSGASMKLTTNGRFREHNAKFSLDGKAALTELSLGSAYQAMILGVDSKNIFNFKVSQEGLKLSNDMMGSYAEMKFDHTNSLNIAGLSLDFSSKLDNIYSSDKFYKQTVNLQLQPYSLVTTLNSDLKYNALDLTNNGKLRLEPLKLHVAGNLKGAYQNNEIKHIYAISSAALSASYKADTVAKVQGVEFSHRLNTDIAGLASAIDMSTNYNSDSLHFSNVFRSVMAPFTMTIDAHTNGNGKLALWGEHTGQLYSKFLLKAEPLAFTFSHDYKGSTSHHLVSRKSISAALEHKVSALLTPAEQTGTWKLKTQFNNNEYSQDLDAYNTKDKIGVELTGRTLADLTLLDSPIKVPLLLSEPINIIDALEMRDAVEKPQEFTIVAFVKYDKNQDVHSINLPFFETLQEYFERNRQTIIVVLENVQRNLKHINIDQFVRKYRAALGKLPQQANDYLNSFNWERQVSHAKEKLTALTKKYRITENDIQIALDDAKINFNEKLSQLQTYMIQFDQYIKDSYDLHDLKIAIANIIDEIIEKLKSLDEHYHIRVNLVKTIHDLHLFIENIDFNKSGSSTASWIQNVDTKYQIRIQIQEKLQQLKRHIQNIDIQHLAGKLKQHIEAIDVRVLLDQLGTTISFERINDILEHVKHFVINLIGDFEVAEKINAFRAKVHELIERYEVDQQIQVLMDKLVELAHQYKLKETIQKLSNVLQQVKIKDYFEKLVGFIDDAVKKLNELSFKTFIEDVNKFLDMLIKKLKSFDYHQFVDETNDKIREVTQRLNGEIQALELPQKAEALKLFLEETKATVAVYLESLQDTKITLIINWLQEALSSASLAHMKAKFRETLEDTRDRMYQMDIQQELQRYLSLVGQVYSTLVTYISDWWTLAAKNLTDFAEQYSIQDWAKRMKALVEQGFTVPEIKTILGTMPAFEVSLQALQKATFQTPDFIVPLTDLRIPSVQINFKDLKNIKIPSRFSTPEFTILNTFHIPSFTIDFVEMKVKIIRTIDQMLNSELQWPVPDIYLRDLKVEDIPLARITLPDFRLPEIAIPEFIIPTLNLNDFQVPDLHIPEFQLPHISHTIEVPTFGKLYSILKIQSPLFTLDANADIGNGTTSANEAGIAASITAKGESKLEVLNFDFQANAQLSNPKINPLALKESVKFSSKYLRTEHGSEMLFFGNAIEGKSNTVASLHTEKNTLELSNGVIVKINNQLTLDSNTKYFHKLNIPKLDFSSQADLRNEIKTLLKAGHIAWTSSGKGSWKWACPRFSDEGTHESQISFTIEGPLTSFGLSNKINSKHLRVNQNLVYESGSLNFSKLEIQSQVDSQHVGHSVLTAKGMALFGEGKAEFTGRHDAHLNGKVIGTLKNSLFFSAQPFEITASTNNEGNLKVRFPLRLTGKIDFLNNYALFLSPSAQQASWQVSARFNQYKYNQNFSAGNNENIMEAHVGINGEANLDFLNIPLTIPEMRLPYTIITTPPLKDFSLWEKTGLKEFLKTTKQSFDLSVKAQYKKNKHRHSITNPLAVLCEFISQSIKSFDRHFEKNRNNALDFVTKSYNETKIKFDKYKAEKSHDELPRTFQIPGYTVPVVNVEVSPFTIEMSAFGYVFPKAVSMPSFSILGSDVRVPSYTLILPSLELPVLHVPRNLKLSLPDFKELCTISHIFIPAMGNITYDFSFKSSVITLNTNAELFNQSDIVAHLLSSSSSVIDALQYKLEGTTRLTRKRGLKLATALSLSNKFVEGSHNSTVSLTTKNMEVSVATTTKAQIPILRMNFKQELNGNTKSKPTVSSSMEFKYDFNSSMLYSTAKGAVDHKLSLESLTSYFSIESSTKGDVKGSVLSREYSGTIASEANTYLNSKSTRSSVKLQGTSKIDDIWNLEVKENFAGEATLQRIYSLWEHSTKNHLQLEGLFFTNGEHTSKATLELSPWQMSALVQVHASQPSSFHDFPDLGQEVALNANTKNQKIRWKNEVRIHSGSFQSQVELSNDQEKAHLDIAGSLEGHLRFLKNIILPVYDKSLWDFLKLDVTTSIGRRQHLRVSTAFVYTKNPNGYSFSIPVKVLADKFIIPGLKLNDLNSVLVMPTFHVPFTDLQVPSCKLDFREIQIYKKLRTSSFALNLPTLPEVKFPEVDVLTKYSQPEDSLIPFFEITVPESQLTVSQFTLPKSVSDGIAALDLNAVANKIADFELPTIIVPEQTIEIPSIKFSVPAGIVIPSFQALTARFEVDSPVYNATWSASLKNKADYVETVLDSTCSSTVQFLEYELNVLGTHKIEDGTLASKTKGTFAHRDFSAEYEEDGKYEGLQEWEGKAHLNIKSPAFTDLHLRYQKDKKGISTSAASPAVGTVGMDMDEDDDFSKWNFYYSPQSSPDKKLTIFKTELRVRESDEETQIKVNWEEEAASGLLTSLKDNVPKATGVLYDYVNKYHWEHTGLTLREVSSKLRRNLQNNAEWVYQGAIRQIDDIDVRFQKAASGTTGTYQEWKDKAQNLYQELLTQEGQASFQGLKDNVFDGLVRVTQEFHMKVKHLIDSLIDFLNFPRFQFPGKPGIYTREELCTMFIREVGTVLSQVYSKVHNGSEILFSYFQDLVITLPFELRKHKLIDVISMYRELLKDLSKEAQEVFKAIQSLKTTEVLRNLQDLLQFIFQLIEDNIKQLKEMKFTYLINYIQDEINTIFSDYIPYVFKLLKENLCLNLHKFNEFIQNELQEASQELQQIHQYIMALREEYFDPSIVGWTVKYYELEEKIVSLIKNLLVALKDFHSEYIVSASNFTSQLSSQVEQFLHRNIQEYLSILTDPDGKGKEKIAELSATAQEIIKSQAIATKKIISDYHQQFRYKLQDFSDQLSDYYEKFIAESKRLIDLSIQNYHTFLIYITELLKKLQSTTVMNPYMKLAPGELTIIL

binding result | Binder
no binding | CL48-139 (antibody, IgM, V domains shown, Mouse monoclonal IgM, kappa, from mice immunized with arteriosclerotic plaque homogenate) VH: EGQLQQSGAEVVKPGASVKLSCTASGFNIKDTYIHWVKQRPEQGLEWIGRIDPTNGNTKYDPEFQGKATITADTSSNTAYLHLSGLTSEDTAVYYCAKGTLFAYWGQGTLVTVSA VL: DIKMTQSPSSMYASLGERVTFTCKASQDINNYLTWVQQKPGKSPKTLIYRANRLVDGVPSRFSGSGSGQDYSLTISSLEYEDMGIYYCLQYDEFPPTFGGGTKLEIK
no binding | CL56-369 (antibody, IgM, V domains shown, Mouse monoclonal IgM, kappa, from mice immunized with arteriosclerotic plaque homogenate) VH: QVQLQQPGAELVKPGASVKLSCKASGYTFTSYWMHWVKQRPGQGLEWIGEIDPSDSYTNYNQKFKGKATLTVDKSSSTAYMQLSSLTSEDSAVYYCARGDMDAMDYWGQGTSVTVSS VL: ETTVTQSPASLSMAIGEKVTIRCITSTDIDDDMNWYQQKPGEPPKLLISEGNTLRPGVPSRFSSSGYGTDFVFTIENMLSEDVADYYCLQSDNLPLTFGAGTKLELK
